One molecule from patent US20240368281A1 (INNATE PHARMA, published 2024) can be followed below.

The target of assay [1] is T1, single-chain NKG2A-CD94-mFc construct (human, UniProt Q13241 32-179, limits assumed).
T1 construct: The order here follows the printed name only; also called recombinant NKG2A; not shown: mouse Fc (mFc)
Kind of assay: SPR, Biacore T100; antigen amine-coupled to a CM5 chip, antibody injected at 0.157-2.5 nM. Here is the method: Heavy chain frameworks included “VH1” based on VH1_18/JH6; “VH5” based on VH5_a; “VH6” based on VH5_51; “VH7” based on VH1_f; and “VH8” based on VH1_46, all with a JH6 J-segment. The antigen-binding properties were analyzed on a Biacore T100 (Biacore AB, Uppsala, Sweden). The antigen was in the form of a single-chain NKG2A-CD94-mFc construct was covalently immobilized on the sensor CM5 chip (Biacore AB, Uppsala, Sweden) via amine groups using 1-ethyl-3-(3-dimethylaminopropyl) carbodiimide hydrochloride (EDC) and N-hydroxysuccinimide (NHS). The immobilization level was targeted at 300 RU. Z270 antibody variants were diluted to a concentration series (0.157, 0.313, 0.625, 1.25, 2.5 nM) in the running buffer HBS-EP (10 mM HEPES pH 7.4, 150 mM NaCl, 3 mM EDTA, 0.005% (v/v) Tween-20). All the samples were then injected over the immobilized antigen for 2 min at the flow rate of 40 ul/min. Subsequently, the running buffer was injected for 3 min at 40 ul/min for antibody dissociation analysis. After each run, the regeneration buffer (10 mM NaOH, 500 mM NaCl) was injected (30 seconds, 10 ul/min) to completely strip the remaining antibodies off the antigen. Data were evaluated with Biacore T100 evaluation software.
(In general: Surface plasmon resonance follows binding to a sensor surface in real time, without labels.)

Assay [2] has as its target T2, CD94/NKG2A on the cell surface (human, UniProt Q13241 1-179, limits assumed). The assay is described as follows: cell-based or functional assay.
Assay [3] addresses T2, CD94/NKG2A on the cell surface. Kind of assay: flow cytometry, titration on purified human NK cells; four-parameter fit, median of 5 donors. How it is done: Purified NK cells were prepared from frozen PBMC: Human NK purification with Stem Sep system, and cultured O/N in complete medium supplemented with 10 IU/ml recombinant IL-2. PBMC were prepared from collected blood. Blood was qualified for transfusion, donors were thus anonymous and supposedly healthy. PBMC were prepared, aliquoted and stored in nitrogen tanks prior to the study.
Calculations of Kd for receptor saturation and EC₅₀ for CD107 mobilization were performed in GraphPad Prism software using a non-linear regression fit with four parameters.
Background: In flow cytometry, cells or beads pass a laser one at a time.

Assay [4] shares this target. Kind of assay: flow cytometry (MESF), titration in human whole blood, gated on NKG2A+ lymphocytes. An excerpt:
The affinity and total number of receptors may impact both pharmacokinetics (PK) and pharmacodynamics (PD) of the mAb in humans. […] Human whole blood was collected from each donor and processed immediately.

What is called Kd is the equilibrium constant for the complex coming apart. Low readings indicate a tighter complex, high ones a looser complex. What is called koff is the rate constant with which the complex falls apart. The kon is the second-order rate constant of association. A low value points to slower complex formation. A word on the EC50: it is the concentration needed to bring the measured effect to its halfway point. Read a high EC50 as a need for much substance.

T1 sequence (Q13241 other isoform, or with tags, fused parts or gaps limits assumed): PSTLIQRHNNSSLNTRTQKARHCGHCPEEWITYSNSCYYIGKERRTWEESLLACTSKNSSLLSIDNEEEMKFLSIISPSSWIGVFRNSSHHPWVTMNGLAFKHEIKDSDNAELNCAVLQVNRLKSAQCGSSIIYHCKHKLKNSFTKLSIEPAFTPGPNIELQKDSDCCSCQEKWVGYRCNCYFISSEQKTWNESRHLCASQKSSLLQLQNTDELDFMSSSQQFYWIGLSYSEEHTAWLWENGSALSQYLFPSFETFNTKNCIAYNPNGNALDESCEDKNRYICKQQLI
T2 sequence (chain, as listed by the source limits assumed, chain 1 of 2): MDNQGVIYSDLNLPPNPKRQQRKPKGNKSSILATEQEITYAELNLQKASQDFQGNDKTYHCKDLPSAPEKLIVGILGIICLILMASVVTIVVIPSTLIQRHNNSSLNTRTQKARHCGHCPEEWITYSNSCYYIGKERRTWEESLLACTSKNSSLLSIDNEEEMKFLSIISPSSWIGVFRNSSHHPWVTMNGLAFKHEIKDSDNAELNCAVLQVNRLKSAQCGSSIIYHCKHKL
T2 sequence (Q13241 whole entry, chain 2 of 2, the tested form may be a part): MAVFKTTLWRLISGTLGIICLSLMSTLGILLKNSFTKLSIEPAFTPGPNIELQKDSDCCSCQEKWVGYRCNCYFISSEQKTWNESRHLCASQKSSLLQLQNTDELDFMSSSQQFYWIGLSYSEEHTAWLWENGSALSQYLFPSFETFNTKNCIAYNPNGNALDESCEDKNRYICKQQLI
T2 sequence (chain, as listed by the source limits assumed, chain 1 of 2): as the sequence (chain, as listed by the source limits assumed, chain 1 of 2) above
T2 sequence (Q13241 whole entry, chain 2 of 2, the tested form may be a part): as the sequence (Q13241 whole entry, chain 2 of 2, the tested form may be a part) above

B1: humZ270VL1/VH1 (antibody, human IgG4 S228P, kappa, V domains shown)
VH: QVQLVQSGAEVKKPGASVKVSCKASGYTFTSYWMNWVRQAPGQGLEWMGRIDPYDSETHYAQKLQGRVTMTTDTSTSTAYMELRSLRSDDTAVYYCARGGYDFDVGTLYWFFDVWGQGTTVTVSS
VL: DIQMTQSPSSLSASVGDRVTITCRASENIYSYLAWYQQKPGKAPKLLIYNAKTLAEGVPSRFSGSGSGTDFTLTISSLQPEDFATYYCQHHYGTPRTFGGGTKVEIKR
notes: also called humanized Z270 VH1; humZ270 VH1
In assay [1], B1 showed a Kd of 0.0665 nM, a koff of 0.000498 s⁻¹ and a kon of 7.49e+06 M⁻¹ s⁻¹. In addition, in assay [2], the “EC50 concentration in the CD107 mobilization assay (purified NK cells against autologous SEB blasts)” value was approximately 400 ng/ml, the “EC50 for CD107 mobilization on K562-HLA-E transfectants” value came to 4.1 µg/mL and the “median EC50 for CD107 mobilization (autologous SEB blasts)” value amounted to 0.4 µg/ml. In assay [3], this molecule showed a Kd of 5 ng/mL. In addition, in assay [4], the EC50 was approximately 4 ng/mL, the “KD for full receptor occupancy (the EC100)” value is approximately 100 ng/mL and the Kd was approximately 4 ng/mL.
